Laboratory results from paper PMC10786891, “Massively parallel profiling of RNA-targeting CRISPR-Cas13d”.
Positions count from the first letter of the chain named.

T1: EsCas13d, nuclease-dead (Eubacterium siraeum, UniProt B0MS50, R295A;H300A;R849A;H854A)
T1 sequence: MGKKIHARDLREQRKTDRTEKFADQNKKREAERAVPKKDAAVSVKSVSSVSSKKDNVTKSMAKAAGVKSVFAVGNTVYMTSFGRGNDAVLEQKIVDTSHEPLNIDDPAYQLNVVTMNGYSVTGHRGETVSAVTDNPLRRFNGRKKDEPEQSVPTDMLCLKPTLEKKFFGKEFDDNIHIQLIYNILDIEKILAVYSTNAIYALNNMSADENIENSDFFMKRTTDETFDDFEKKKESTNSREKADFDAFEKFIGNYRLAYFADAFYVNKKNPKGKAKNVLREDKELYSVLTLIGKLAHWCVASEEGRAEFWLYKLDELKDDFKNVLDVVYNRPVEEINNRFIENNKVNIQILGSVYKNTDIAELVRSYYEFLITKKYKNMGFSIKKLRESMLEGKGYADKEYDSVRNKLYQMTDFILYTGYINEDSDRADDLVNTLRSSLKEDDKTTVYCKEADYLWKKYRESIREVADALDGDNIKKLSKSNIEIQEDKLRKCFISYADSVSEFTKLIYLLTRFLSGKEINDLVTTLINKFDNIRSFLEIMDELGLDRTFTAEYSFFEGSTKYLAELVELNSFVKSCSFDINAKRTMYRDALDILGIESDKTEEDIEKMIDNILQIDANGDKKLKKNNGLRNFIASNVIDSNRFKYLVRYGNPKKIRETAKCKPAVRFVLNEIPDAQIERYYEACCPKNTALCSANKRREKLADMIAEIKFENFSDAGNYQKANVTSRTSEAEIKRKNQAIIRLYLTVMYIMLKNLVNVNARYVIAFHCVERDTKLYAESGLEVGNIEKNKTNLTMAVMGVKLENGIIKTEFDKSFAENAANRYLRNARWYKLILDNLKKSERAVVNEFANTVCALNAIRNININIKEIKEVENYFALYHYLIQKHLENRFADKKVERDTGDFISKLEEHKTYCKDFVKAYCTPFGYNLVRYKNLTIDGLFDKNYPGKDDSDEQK

B1: target 1 MT 5'PFS GCG 3'PFS UCG (mixed)
RNA 1: CACCCGUGCAAAAAUGCAGGGGUCUAAAACUGAGCGGAUAACCUCUCUAUGG
RNA 2: GGGAAUGGAUCCACAUCUACGAAUUCGCGCCAUAGAGAGGUUAUCCGCUCAUCGAGAUCGGAAGAGCACACGU
B2: target 1 MT 5'PFS AAC 3'PFS ACU (mixed)
RNA 1: B1 RNA 1
RNA 2: B1 RNA 2 with G27A, C28A, G29C, U52A, G54U
B3: target 1 MT 5'PFS GUG 3'PFS AUC (mixed)
RNA 1: B1 RNA 1
RNA 2: B1 RNA 2 with C28U, U52A, C53U, G54C
B4: target 1 MT 5'PFS UAU 3'PFS UAA (mixed)
RNA 1: B1 RNA 1
RNA 2: B1 RNA 2 with G27U, C28A, G29U, C53A, G54A
B5: target 1 MT 5'PFS UGU 3'PFS CUA (mixed)
RNA 1: B1 RNA 1
RNA 2: B1 RNA 2 with G27U, C28G, G29U, U52C, C53U, G54A
B6: target 1 insA 3' of 22,insU 3' of 4 (mixed)
RNA 1: B1 RNA 1
RNA 2: GGGAAUGGAUCCACAUCUACGAAUUCGUACACAUAGAGAGGUUAUCCGCUUCACCGAGAUCGGAAGAGCACACGU
B7: target 1 MT 5'PFS GUG 3'PFS AUU (mixed)
RNA 1: B1 RNA 1
RNA 2: B1 RNA 2 with C28U, U52A, C53U, G54U
B8: target 1 MT 5'PFS CUC 3'PFS ACG (mixed)
RNA 1: B1 RNA 1
RNA 2: B1 RNA 2 with G27C, C28U, G29C, U52A
B9: target 1 MT 5'PFS UAG 3'PFS CCG (mixed)
RNA 1: B1 RNA 1
RNA 2: B1 RNA 2 with G27U, C28A, U52C
B10: target 1 MT 5'PFS UGU 3'PFS CUU (mixed)
RNA 1: B1 RNA 1
RNA 2: B1 RNA 2 with G27U, C28G, G29U, U52C, C53U, G54U
B11: target 1 insC 3' of 19,insG 3' of 9 (mixed)
RNA 1: B1 RNA 1
RNA 2: B6 RNA 2 with A31C, C32A, A33U, U34C, U45G, C46U, G48C, C49G, U50C
B12: target 1 MT 5'PFS AAA 3'PFS UUG (mixed)
RNA 1: B1 RNA 1
RNA 2: B1 RNA 2 with G27A, C28A, G29A, C53U
B13: target 1 MT 5'PFS GUG 3'PFS AUA (mixed)
RNA 1: B1 RNA 1
RNA 2: B1 RNA 2 with C28U, U52A, C53U, G54A
B14: target 1 MT 5'PFS GUG 3'PFS AUG (mixed)
RNA 1: B1 RNA 1
RNA 2: B1 RNA 2 with C28U, U52A, C53U
B15: target 1 MT 5'PFS GCA 3'PFS UCC (mixed)
RNA 1: B1 RNA 1
RNA 2: B1 RNA 2 with G29A, G54C
B16: target 1 MT 5'PFS ACC 3'PFS CAG (mixed)
RNA 1: B1 RNA 1
RNA 2: B1 RNA 2 with G27A, G29C, U52C, C53A
B17: target 1 MT 5'PFS AAA 3'PFS UUA (mixed)
RNA 1: B1 RNA 1
RNA 2: B1 RNA 2 with G27A, C28A, G29A, C53U, G54A
B18: target 1 MT 5'PFS UAG 3'PFS CCC (mixed)
RNA 1: B1 RNA 1
RNA 2: B1 RNA 2 with G27U, C28A, U52C, G54C

Target: T1, EsCas13d, nuclease-dead
Test: crRNA (strand 1, pre-loaded); Mg2+; 40 mM Tris-HCl pH 7.5, 150 mM NaCl, 6 mM MgCl2, 1 mM DTT, 0.1% Tween-20, 0.2 mg/ml BSA; 25 C; 10 min per concentration, then washed
Details: tags: His6-TwinStrep-SUMO cleaved; N-terminal SNAP kept (SNAP-Surface 488); label: 3' end held by stalled T7 RNA polymerase

Binder | Kd [nM]
B1 | 12.8 ± 2.6
B2 | 21 ± 7
B3 | 19.9 ± 2.4
B4 | 34 ± 11
B5 | 49 ± 19
B6 | 11.3 ± 0.7
B7 | 15.8 ± 1.4
B8 | 72 ± 33
B9 | 22 ± 5.15
B10 | 28.9 ± 7.65
B11 | 44 ± 5
B12 | 11.7 ± 1.55
B13 | 18.2 ± 1.25
B14 | 16.2 ± 1
B15 | 13.7 ± 5.95
B16 | ~36
B17 | 10.1 ± 1.45
B18 | ~56
